The values below come from patent publication US20070129307A1, “Insulin epitopes for the treatment of type 1 diabetes” (The University of British Columbia, priority 2001, published 2007).

Test [1] has as its target T1, murine MHC class I molecule, H-2Kd (mouse).
T1 chain 1: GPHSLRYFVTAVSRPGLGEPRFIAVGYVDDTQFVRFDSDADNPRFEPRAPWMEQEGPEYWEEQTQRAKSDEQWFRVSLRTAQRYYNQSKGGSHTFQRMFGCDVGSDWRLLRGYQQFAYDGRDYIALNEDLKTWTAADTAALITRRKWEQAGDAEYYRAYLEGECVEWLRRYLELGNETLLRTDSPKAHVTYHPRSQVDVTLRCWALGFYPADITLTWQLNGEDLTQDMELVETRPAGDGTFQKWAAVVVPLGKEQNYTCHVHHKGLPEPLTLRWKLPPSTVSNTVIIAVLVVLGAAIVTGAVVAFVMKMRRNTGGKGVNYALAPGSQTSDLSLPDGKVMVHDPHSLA
T1 chain 2: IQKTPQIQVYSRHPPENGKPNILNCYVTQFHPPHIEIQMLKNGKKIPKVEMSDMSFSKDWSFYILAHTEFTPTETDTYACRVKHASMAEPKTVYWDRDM
Put plainly: MHC class I stabilization assay on TAP-deficient RMAS-Kd cells, anti-H-2Kd-FITC, flow cytometry (background without peptide 6.07%).

The target of test [2] is human MHC class I molecule HLA-A*0201 (human). As to the kind of experiment: HLA-A2 stabilization on T2 cells loaded with 50 ug/ml peptide, anti-HLA-A2 (BB7.2) flow cytometry, MFI relative to CMV/A2. (In flow cytometry, cells or beads pass a laser one at a time.)

Consider LYLVCGERG (modifications not checked) [INSL], for which the % of RMAS-Kd cells staining positive for surface H-2Kd in test [1] was 73.7%.
Still for that read-out and setting: next, KYNKANVFL (modifications not checked) [NRP-V7]: 72.7%.
As for DLMGYIPLV (modifications not checked) [HCV peptide], in test [2], the relative HLA-A2 surface expression (% of CMV/A2 peptide binding) was over 80%.
